Data taken from paper doi:10.1101/2025.06.12.659326.

Target: dynein light intermediate chain 2 (LIC2)
Assay: anti-HA IP of LIC2-HA, GFP blot
Conditions: reference: GFP-WT OCLN; sites S490

other: reduction vs WT [%] | Substance
25 | occludin (OCLN) (from UniProt Q16625) GFP-S490A
25 | occludin (OCLN) (from UniProt Q16625) GFP-S490D
